Assay results from paper PMC7037036, “C-Terminal Domain of the Human Zinc Transporter hZnT8 Is Structurally Indistinguishable from Its Disease Risk Variant (R325W)” (International Journal of Molecular Sciences, 2020).

Target: the molecule itself
Experiment: SEC; Superdex 75, protein 10 mg/mL, 20 mM Tris pH 7.5, 150 mM NaCl, native conditions; calibrated with standard proteins; for the WT CTD the profile was similar with 3 mM beta-mercaptoethanol and the tetramer was kept in 8 M urea (some aggregates)

Row | Protein | stoichiometry N
1 | C-terminal domain (CTD) of the human zinc transporter 8 (hZnT8), wild type (domain or fragment, UniProt Q8IWU4 281-369, looked up, human zinc transporter 8 (hZnT8, SLC30A8), C-terminal domain, Ser281-Asp369; Expressed as His-MBP-TEV-CTD from a pET28a-based vector; N-terminal tags removed with TEV protease; Measured mass 9.828 kDa; also called WT CTD; hZnT8 CTD; source: E. coli BL21 (DE3), purified (Ni-NTA, TEV cleavage, Hi-Trap Q anion exchange, repeated Ni-NTA, amylose resin); not shown: His tag, N-terminal, cleaved; MBP, …) SLNYSGVKELILAVDGVLSVHSLHIWSLTMNQVILSAHVATAASRDSQVVRREIAKALSKSFTMHSLTIQMESPVDQDPDCLFCEDPCD | 4
2 | C-terminal domain (CTD) of the human zinc transporter 8 (hZnT8), disease risk variant R325W (domain or fragment, UniProt Q8IWU4 281-369, looked up, human zinc transporter 8 (hZnT8, SLC30A8), C-terminal domain, Ser281-Asp369, natural variant R325W (SNP rs13266634); Made from the WT CTD plasmid by QuikChange site-directed mutagenesis; N-terminal tags removed with TEV protease; also called R325W CTD; CTD of the disease risk variant; source: E. coli BL21 (DE3), purified (Ni-NTA, TEV cleavage, Hi-Trap Q anion exchange, repeated Ni-NTA, amylose …)) SLNYSGVKELILAVDGVLSVHSLHIWSLTMNQVILSAHVATAASWDSQVVRREIAKALSKSFTMHSLTIQMESPVDQDPDCLFCEDPCD | 4
